According to article PMC12401969, “The gut microbiota protein BOC1 exhibits immune checkpoint inhibitor-like activity by inhibiting myeloid-derived suppressor cell differentiation” (Frontiers in Immunology, 2025):

T1: biotinylated CD200R1 (UniProt Q8TD46 29-265, biotin (site not stated))
T1 construct: CD200R1 (CD200 receptor 1), soluble biotinylated protein; Held on streptavidin Donor beads in the AlphaLISA; also called CD200R1-(biot)
T1 sequence (looked up): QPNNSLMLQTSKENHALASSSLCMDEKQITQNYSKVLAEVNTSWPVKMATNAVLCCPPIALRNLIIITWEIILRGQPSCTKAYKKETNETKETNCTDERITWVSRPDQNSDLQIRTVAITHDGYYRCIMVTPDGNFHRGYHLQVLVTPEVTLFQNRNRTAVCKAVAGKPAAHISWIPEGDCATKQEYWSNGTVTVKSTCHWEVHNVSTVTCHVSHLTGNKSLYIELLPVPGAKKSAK

B1: CD200-His (ligand, UniProt P41217 31-232, looked up)
chain: QVQVVTQDEREQLYTPASLKCSLQNAQEALIVTWQKKKAVSPENMVTFSENHGVVIQPAYKDKINITQLGLQNSTITFWNITLEDEGCYMCLFNTFGFGKISGTACLTVYVQPIVSLHYKFSEDHLNITCSATARPAPMVFWKVPRSGIENSTVTLSHPNGTTSVTSILHIKDPKNQVGKEVICQVLHLGTVTDFKQTVNKG
notes: CD200 (OX-2), soluble His-tagged protein; Held on anti-6His Acceptor beads in the AlphaLISA; also called His-tagged CD200

How the values were obtained:
[1] = target: T1, biotinylated CD200R1; assay: AlphaScreen or HTRF; AlphaLISA; 3 nM CD200R1-(biot) with a dose response of His-tagged BOC1, its mutants, CD200 or P352 (0.1 to 300 nM by the legend, 0.1 to 100 nM by the table's footnote); fit 'One site-total' (GraphPad Prism)
[2] = target: CD200R1 on human monocytes, MoDCs and MDSCs (human (endogenous in primary monocytes, MoDCs, MDSCs)) (UniProt Q8TD46)
[3] = target: T1, biotinylated CD200R1; assay: AlphaScreen or HTRF; AlphaLISA; 3 nM CD200R1-(biot) with a dose response (0.1 to 100 nM) of the His-tagged protein; fit 'One site-total' (GraphPad Prism)

Sequence of CD200R1 on human monocytes, MoDCs and MDSCs (human (endogenous in primary monocytes, MoDCs, MDSCs)) (Q8TD46 25-348): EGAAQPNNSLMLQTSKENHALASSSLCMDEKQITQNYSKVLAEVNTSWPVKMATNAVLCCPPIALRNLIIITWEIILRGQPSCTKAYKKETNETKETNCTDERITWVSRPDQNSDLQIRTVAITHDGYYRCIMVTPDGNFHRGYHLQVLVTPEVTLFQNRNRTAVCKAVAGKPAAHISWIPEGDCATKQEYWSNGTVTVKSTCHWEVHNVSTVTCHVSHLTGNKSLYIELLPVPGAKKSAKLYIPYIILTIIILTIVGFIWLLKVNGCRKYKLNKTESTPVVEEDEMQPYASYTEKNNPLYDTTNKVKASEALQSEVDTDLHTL

Molecule | Kd [1] | inhibition of the differentiation of human monocytes into MDSCs (rhIL-6 + rhGM-CSF, 7 days; BOC1 at 1, 10, 50 nM), CD14+CD11b+CD33+HLA-DRlow cells by flow cytometry [2] | Kd [3] | Kd ([3]; both partners purified) | Kd ([1]; both partners purified)
BOC1-m1 (Glu19) (natural protein) | 960 pM |  |  |  | 
BOC1-m2 (Ser34) (natural protein) | 2780 pM |  |  |  | 
BOC1-His (natural protein) | 380 pM | 90% | 380 pM |  | 
B1 |  |  |  | 1560 ± 300 pM | 950 ± 270 pM
